IntAct's records for PubMed 15148308

B1: Docking protein 1 (Mus musculus), P97465 (parent)
chain: MDGAVMEGPLFLQSQRFGTKRWRKTWAVLYPASPHGVARLEFFDHKGSSSRGGRGGSRRLDCKMIRLAECVSVVPVTVESPPEPGAVAFRLDTAQRSHLLAADAVSSTAWVQTLCRTAFPKGGWALAQTENQPKFSALEMLENSLYSPTWEGSQFWVTSQKTEASERCGLQGSYILRVEAEKLTLLTLGAQSQILEPLLFWPYTLLRRYGRDKVMFSFEAGRRCPSGPGTFTFQTSQGNDIFQAVEAAIQQQKAQGKVGQAQDILRTDSHDGETEGKTVPPPVPQDPLGSPPALYAEPLDSLRIPPGPSQDSVYSDPLGSTPAGAGEGVHSKKPLYWDLYGHVQQQLLKTKLTDSKEDPIYDEPEGLAPAPPRGLYDLPQEPRDAWWCQARLKEEGYELPYNPATDDYAVPPPRSPKPAPAPKPQGLILPESGTTRGSGSKGFSSDTALYSQVQKSGTSGAWDCGLSKVGNDRAGVKSEGST

Variants of: B1
Conditions: with nck1_mouse Nck1, Q99M51

effect of a mutation on the interaction	Variant
disrupting interaction	MDGAVMEGPLFLQSQRFGTKRWRKTWAVLYPASPHGVARLEFFDHKGSSSRGGRGGSRRLDCKMIRLAECVSVVPVTVESPPEPGAVAFRLDTAQRSHLLAADAVSSTAWVQTLCRTAFPKGGWALAQTENQPKFSALEMLENSLYSPTWEGSQFWVTSQKTEASERCGLQGSYILRVEAEKLTLLTLGAQSQILEPLLFWPYTLLRRYGRDKVMFSFEAGRRCPSGPGTFTFQTSQGNDIFQAVEAAIQQQKAQGKVGQAQDILRTDSHDGETEGKTVPPPVPQDPLGSPPALYAEPLDSLRIPPGPSQDSVYSDPLGSTPAGAGEGVHSKKPLYWDLYGHVQQQLLKTKLTDSKEDPIFDEPEGLAPAPPRGLYDLPQEPRDAWWCQARLKEEGYELPYNPATDDYAVPPPRSPKPAPAPKPQGLILPESGTTRGSGSKGFSSDTALYSQVQKSGTSGAWDCGLSKVGNDRAGVKSEGST [Y361F]
